Laboratory results reported in publication PMC6135763 (Nature Communications, 2018).

T1: Importin α3ΔIBB (residues 64–521) (human, UniProt O00629 64-521)
T1 construct: also called Impα3; KPNA4
T1 sequence (looked up): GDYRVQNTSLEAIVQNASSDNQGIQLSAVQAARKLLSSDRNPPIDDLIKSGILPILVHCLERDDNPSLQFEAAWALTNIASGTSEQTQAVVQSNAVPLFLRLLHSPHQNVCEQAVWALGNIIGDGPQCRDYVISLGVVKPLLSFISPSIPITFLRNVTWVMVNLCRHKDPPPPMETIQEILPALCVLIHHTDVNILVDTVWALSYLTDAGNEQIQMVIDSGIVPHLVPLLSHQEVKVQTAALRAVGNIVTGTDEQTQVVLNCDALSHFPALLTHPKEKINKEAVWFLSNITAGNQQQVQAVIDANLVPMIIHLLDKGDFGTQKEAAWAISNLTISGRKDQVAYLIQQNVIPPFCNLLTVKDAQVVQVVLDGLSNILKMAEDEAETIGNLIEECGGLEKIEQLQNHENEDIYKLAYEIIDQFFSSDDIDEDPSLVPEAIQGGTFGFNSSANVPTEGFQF


How the values were obtained:
[1] = target: Importin α7ΔIBB (residues 73–536) (human, UniProt O60684 73-536); assay: ELISA; settings: both partners purified
[2] = target: T1, Importin α3ΔIBB (residues 64–521); assay: ELISA; settings: both partners purified

Sequence of Importin α7ΔIBB (residues 73–536) (O60684 73-536, stated change not applied): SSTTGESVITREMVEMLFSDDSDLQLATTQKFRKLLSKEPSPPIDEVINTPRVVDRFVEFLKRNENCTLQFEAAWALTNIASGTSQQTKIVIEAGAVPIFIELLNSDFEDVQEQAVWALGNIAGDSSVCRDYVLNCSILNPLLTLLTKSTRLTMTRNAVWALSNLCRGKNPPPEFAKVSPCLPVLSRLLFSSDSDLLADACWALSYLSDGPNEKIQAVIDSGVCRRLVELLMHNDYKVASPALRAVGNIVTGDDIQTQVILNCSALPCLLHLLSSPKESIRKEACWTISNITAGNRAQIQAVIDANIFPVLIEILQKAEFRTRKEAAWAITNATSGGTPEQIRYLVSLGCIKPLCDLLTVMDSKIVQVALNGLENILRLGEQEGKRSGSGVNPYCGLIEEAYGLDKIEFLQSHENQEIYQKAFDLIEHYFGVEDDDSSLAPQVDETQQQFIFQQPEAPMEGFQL

Binder	Kd [1]	Kd [2]
RSLNMLGRKTCLGRRVVQPGMFADYPPTKKARVLLRRMSN (domain or fragment) [GST-HeV W (C-terminal NLS domain of Hendra virus W protein, residues 409–448, GST fusion)]	1500 nM	19.9 nM
RNIHLLGRKTCLGRRVVQPGMFEDHPPTKKARVSMRRMSN (domain or fragment) [GST-NiV W (C-terminal NLS domain of Nipah virus W protein, residues 411–450, GST fusion)]	1100 nM	14.4 nM
